Source: paper PMC5935710, “Structure and mechanism of the two-component α-helical pore-forming toxin YaxAB” (Nature Communications, 2018)

Experiments:
YaxA [1] = molecular target: T1, YaxA (Y. enterocolitica, UniProt A1JM51 1-411); assay: negative-stain EM; YaxA, then YaxB (1.5-fold molar excess) on human erythrocyte ghosts; pores extracted with 1.5% Cymal-6, purified on Superose 6 and a 10-40% sucrose gradient; 0.1 mg/mL on grids, uranyl formate stain; details: both partners purified
T1 construct: YaxA of Yersinia enterocolitica serovar 8, biovar 1 (ATCC 23715), ORF YE1984; 45.9 kDa; native mass spectrometry verified that the full-length protein was purified; the ORF was amplified from cDNA of ATCC 23715; The pore model 6EL1 holds YaxA residues 45-153 and 169-410; also called YaxA^WT; WT YaxA; not shown: His6, N-terminal, cleaved; SUMO, N-terminal, cleaved
T1 sequence: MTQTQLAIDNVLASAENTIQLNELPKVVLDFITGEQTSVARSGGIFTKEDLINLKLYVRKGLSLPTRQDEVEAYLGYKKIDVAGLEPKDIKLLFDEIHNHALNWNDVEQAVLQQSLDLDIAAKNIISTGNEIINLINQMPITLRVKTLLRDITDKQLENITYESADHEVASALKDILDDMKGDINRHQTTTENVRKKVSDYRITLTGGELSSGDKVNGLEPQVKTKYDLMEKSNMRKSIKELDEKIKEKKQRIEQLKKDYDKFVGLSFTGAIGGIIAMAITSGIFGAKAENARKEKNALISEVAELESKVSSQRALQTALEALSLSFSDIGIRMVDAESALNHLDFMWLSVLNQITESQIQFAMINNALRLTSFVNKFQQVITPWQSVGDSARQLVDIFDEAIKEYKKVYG

YaxA [2] = molecular target: T1, YaxA; assay: SEC; purified YaxA and YaxB mixed in solution; ratio of the two in the complex from SDS-PAGE band intensities; details: both partners purified
[3] = molecular target: the molecule itself; assay: cryo-EM structure; 1 mg each of YaxA and YaxB mixed at room temperature, Cymal-6 treated, Superose 6, exchanged into amphipol A8-35; 2 mg/mL; C10 symmetry imposed, 6.1 Å; a C9 class at 7.6 Å

B1: YaxB (natural protein)
chain: MAEISTFPHSGLSYPDINFKIFSQGVKNISHLAQFKTTGVEVLQEKALRVSLYSQRLDVIVRESLSSLQVKLENTLALTYFTTLEEIDEALISQDIDEESKSEMRKERINIIKNLSNDITQLKQLFIEKTELLDKSSSDLHNVVIIEGTDKVLQAEQLRQKQLTEDIATKELERKEIEKKRDKIIEALDVIREHNLVDAFKDLIPTGENLSELDLAKPEIELLKQSLEITKKLLGQFSEGLKYIDLTDARKKLDNQIDTASTRLTELNRQLEQSEKLIAGVNAVIKIDQEKSAVVVEAEKLSRAWHIFIHEITALQGTSLNEVELSKPLIKQQIYLESLIKQLI
notes: YaxB of Yersinia enterocolitica serovar 8, biovar 1 (ATCC 23715), ORF YE1985; 39.3 kDa; the ORF was cloned behind His6 and a TEV site; the ORF was amplified from cDNA of ATCC 23715; The pore model 6EL1 holds YaxB residues 12-343; also called YE1985; not shown: His6, N-terminal, cleaved
- radial spokes (YaxA–YaxB dimers) per complex (YaxA [1]): 11 fold symmetry
- stoichiometry N (YaxA [2]): 1 YaxA:YaxB
- stoichiometry N [3]: 10
